Experimental data as given in patent publication US20210284747A1 (CAPELLA BIOSCIENCE, published 2021).
Where a chain is given by its changes, count along the chain named. Names and notes keep the numbering of the source.

T1: Human LIGHT-32L, on II23 cells (human, UniProt O43557 1-240)
T1 construct: also called II23-LIGHT 32L
T1 chain: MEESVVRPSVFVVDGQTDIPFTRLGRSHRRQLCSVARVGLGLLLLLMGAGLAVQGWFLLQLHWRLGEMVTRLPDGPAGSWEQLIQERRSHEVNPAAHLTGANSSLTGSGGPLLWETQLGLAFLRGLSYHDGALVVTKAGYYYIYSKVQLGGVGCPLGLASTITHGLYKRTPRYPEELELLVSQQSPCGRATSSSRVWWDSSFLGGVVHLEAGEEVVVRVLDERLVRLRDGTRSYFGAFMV

B1: 3E09 chimeric IgG4 mAb (antibody, V domains shown)
VH: EVQLVESGGGLVKPGGSLKLSCEASGFTFSDYYMYWVRQTPEKRLEWVAAIGDGGIYTYYADTVKGRFTISRDNAKNILYLQMSSLKSNDTAMYYCARGTGDGFAYWGQGTLVTVS
VL: DIVLTQSPASLAVSLGQRATISCRASESVDSYGNSFMHWYQQKPGQPPKLLIYLASNLESGVPARFSGSGSRTDFTLTIDPVEADDAATYYCQQNNEDPYTFGGGTKLEIK
notes: Chimeric human IgG4 (S-to-P, L-to-E) with human CL, as m1; also called Parental 3E09
B2: 2E08 chimeric IgG4 mAb (antibody, V domains shown)
VH: QVQMKESGAELVRPGVSVKISCKGSGYTFTDYAIHWVKQSHAKTLEWIGVISTYYGDASYNQKFKGKATMTVDKSSSTAYMELARLTSDDSAIYYCARSRGEYGNYDAMDYWGQGTSVTVSS
VL: DIVLTQSPASLAVSLGQRATISCKASQSVDYDGDSYMNWYQQKPGQPPKLLIYAASNLESGIPARFSGSGSGTDFTLNIHPVEEEDAATYYCQQSNEDPLTFGAGTKLELK
notes: Chimeric human IgG4 (S-to-P, L-to-E) with human CL, as m1; also called Parental 2E08
B3: 3A07 chimeric IgG4 mAb (antibody, V domains shown)
VH: QVQLQQSGAELVRPGAPVTLSCKASDYTFTDSEIHWVKQTPVHGLEWIGEIDPETGGTAYNQKFKGKATLTADKSSSTAYMELRSLTSEDSAVYYCSRETDYFFDYWGQGTTLTVSS
VL: ENVLTQSPAIMSASPGEKVTMTCSASSSVSYMYWYQQRPGSSPRLLIYDTSNLASGVPVRFSGSGSGTSYSLTISRMEAEDAATYYCQQWSSYPLTFGSGTKLEIK
notes: Chimeric human IgG4 (S-to-P, L-to-E) with human CL, as m1; also called Parental 3A07
B4: 3C10 chimeric IgG4 mAb (antibody, V domains shown)
VH: B3 VH with Q1E, P17S
VL: B3 VL with E1D, N2V, L4M, S7T, R38K, S99A, I105L
notes: Chimeric human IgG4 (S-to-P, L-to-E) with human CL, as m1; also called Parental 3C10
B5: 3D12_var11 (antibody, V domains shown)
VH: QVQLVQSGAEVKKPGASVKVSCKASDYTFTDSEIHWVRQAPGQGLEWMGEIDPETGGTAYAQKFQGRVTLTADKSTSTAYMELSSLRSEDTAVYYCSRETDYFFDYWGQGTLVTVSS
VL: DIQMTQSPSSLSASVGDRVTITCGASENIYGALNWYQQKPGKAPKLLIYGATNLADGVPSRFSGSGSGRDYTLTISSLQPEDVATYYCQNVLSTPWTFGQGTKLEIKR
B6: 3D12_var10 (antibody, V domains shown)
VH: B5 VH with M48I, A61N
VL: B5 VL
B7: 3B04_var3 (antibody, V domains shown)
VH: B5 VH with D26G, S32Y, I34M, G57D, L83F, C96S, S97C
VL: B5 VL with Q38R, P40Q, K45Q, P59S, V83F, S93T
notes: Human IgG4 (S241P, L248E, Kabat); also called 3B04VH3VK1
B8: 3B04_var7 (antibody, V domains shown)
VH: B5 VH with D26G, S32Y, I34M, G57D, L83F, C96S, S97C
VL: B5 VL with Q38R, P40Q, V83F, S93T
notes: Human IgG4 (S241P, L248E, Kabat); also called 3B04VH3VK2
B9: 3B04_var11 (antibody, V domains shown)
VH: B5 VH with D26G, S32Y, I34M, G57D, L83F, C96S, S97C
VL: B5 VL with V83F, S93T
notes: Human IgG4 (S241P, L248E, Kabat); also called 3B04VH3VK3

Target: Full length LIGHT T191A on HEK293FF cells (Homo sapiens (Human), UniProt O43557 1-240)
Assay: flow cytometry, HEK293FF, mAb at EC50
Description: (§1) The day of transfection the cells were seeded in a 24-well plate at 0.6×10⁶ cells/well. Lipofectamine 2000 (ThermoFisher scientific), 3 ul, was mixed with 50 μl OptiMEM medium (GIBCO) and then added to 50 μl Opti-MEM medium containing 3 ug plasmid DNA and incubated for 20 min at RT to form DNA-Lipofectamine 2000 complexes which were then added to the HEK293FF cells and incubated at 37° C., 5% CO₂ for 24 hours. For each construct, in duplicate, 0.60×10⁶ cells/well were used in a 96 well round bottom plate. Cells were centrifuged for 3 minutes at 300×g at 4° C., the supernatant discarded and the cells washed with 150 μl FACS buffer (0.5% FBS in phosphate buffered saline). This process was repeated 3 times. […] The wells were washed 3 times as above and 50 μl/well of goat anti-human IgG FITC (1:1500 dilution in FACS buffer, SIGMA F9512-2ML) or goat anti-mouse APC (1/500 dilution in FACS buffer, BDBioscience 550826), as appropriate, was added to the wells and incubated for 30 min at 4° C. protected from the light, with shaking. The cells were then washed as above, resuspended in 100 μl of FACS buffer and binding of the antibodies to the constructs was measured using flow cytometry and a total of 10,000 cells were acquired for each sample. Controls of buffer and secondary antibody only as well as HEK293FF non transfected cells were also used.

Sequence of Full length LIGHT T191A on HEK293FF cells (O43557 whole entry T191A): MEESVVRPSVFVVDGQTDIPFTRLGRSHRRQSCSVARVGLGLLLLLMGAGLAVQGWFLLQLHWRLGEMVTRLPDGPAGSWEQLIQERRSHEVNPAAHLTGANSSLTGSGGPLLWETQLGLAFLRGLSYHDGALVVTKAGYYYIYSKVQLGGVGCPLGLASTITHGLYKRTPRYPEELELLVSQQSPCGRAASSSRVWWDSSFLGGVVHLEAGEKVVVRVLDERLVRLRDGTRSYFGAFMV

| Binder | % of WT binding |
| --- | --- |
| B1 | 88% |
| B2 | 22% |
| B3 | 4% |
| B4 | 3% |

Target: Full length LIGHT R189A on HEK293FF cells (Homo sapiens (Human), UniProt O43557 1-240)
Assay: flow cytometry, HEK293FF, mAb at EC50
Description: as §1

Sequence of Full length LIGHT R189A on HEK293FF cells (O43557 whole entry R189A): as the sequence (O43557 whole entry T191A) above, with R189A, A191T counted along it

| Binder | % of WT binding |
| --- | --- |
| B1 | 1% |
| B2 | 2% |
| B3 | 0% |
| B4 | 0% |

Target: Full length LIGHT W197A on HEK293FF cells (Homo sapiens (Human), UniProt O43557 1-240)
Assay: flow cytometry, HEK293FF, mAb at EC50
Description: as §1

Sequence of Full length LIGHT W197A on HEK293FF cells (O43557 whole entry W197A): as the sequence (O43557 whole entry T191A) above, with A191T, W197A counted along it

| Binder | % of WT binding |
| --- | --- |
| B1 | 1% |
| B2 | 0% |
| B3 | 1% |
| B4 | 0% |

Target: Full length LIGHT G188A on HEK293FF cells (Homo sapiens (Human), UniProt O43557 1-240)
Assay: flow cytometry, HEK293FF, mAb at EC50
Description: as §1

Sequence of Full length LIGHT G188A on HEK293FF cells (O43557 whole entry G188A): as the sequence (O43557 whole entry T191A) above, with G188A, A191T counted along it

| Binder | % of WT binding |
| --- | --- |
| B1 | 35% |
| B2 | 44% |
| B3 | 5% |
| B4 | 3% |

Target: Full length LIGHT S193A on HEK293FF cells (Homo sapiens (Human), UniProt O43557 1-240)
Assay: flow cytometry, HEK293FF, mAb at EC50
Description: as §1

| Binder | % of WT binding |
| --- | --- |
| B1 | 0% |
| B2 | 0% |
| B3 | 0% |
| B4 | 0% |

Target: Full length LIGHT S192A on HEK293FF cells (Homo sapiens (Human), UniProt O43557 1-240)
Assay: flow cytometry, HEK293FF, mAb at EC50
Description: as §1

Sequence of Full length LIGHT S192A on HEK293FF cells (O43557 whole entry S192A): as the sequence (O43557 whole entry T191A) above, with A191T, S192A counted along it

| Binder | % of WT binding |
| --- | --- |
| B1 | 50% |
| B2 | 122% |
| B3 | 41% |
| B4 | 35% |

Target: Full length LIGHT A190S on HEK293FF cells (Homo sapiens (Human), UniProt O43557 1-240)
Assay: flow cytometry, HEK293FF, mAb at EC50
Description: as §1

Sequence of Full length LIGHT A190S on HEK293FF cells (O43557 whole entry A190S): as the sequence (O43557 whole entry T191A) above, with A190S, A191T counted along it

| Binder | % of WT binding |
| --- | --- |
| B1 | 97% |
| B2 | 93% |
| B3 | 47% |
| B4 | 40% |

Target: Full length LIGHT R195A on HEK293FF cells (Homo sapiens (Human), UniProt O43557 1-240)
Assay: flow cytometry, HEK293FF, mAb at EC50
Description: as §1

Sequence of Full length LIGHT R195A on HEK293FF cells (O43557 whole entry R195A): as the sequence (O43557 whole entry T191A) above, with A191T, R195A counted along it

| Binder | % of WT binding |
| --- | --- |
| B1 | 1% |
| B2 | 43% |
| B3 | 15% |
| B4 | 6% |

Target: Full length LIGHT V196A on HEK293FF cells (Homo sapiens (Human), UniProt O43557 1-240)
Assay: flow cytometry, HEK293FF, mAb at EC50
Description: as §1

| Binder | % of WT binding |
| --- | --- |
| B1 | 34% |
| B2 | 99% |
| B3 | 77% |
| B4 | 78% |

Target: Full length LIGHT S194A on HEK293FF cells (Homo sapiens (Human), UniProt O43557 1-240)
Assay: flow cytometry, HEK293FF, mAb at EC50
Description: as §1

Sequence of Full length LIGHT S194A on HEK293FF cells (O43557 whole entry S194A): as the sequence (O43557 whole entry T191A) above, with A191T, S194A counted along it

| Binder | % of WT binding |
| --- | --- |
| B1 | 1% |
| B2 | 3% |
| B3 | 1% |
| B4 | 0% |

Target: Full length LIGHT W198A on HEK293FF cells (Homo sapiens (Human), UniProt O43557 1-240)
Assay: flow cytometry, HEK293FF, mAb at EC50
Description: as §1

Sequence of Full length LIGHT W198A on HEK293FF cells (O43557 whole entry W198A): as the sequence (O43557 whole entry T191A) above, with A191T, W198A counted along it

| Binder | % of WT binding |
| --- | --- |
| B1 | 48% |
| B2 | 83% |
| B3 | 82% |
| B4 | 86% |

Target: T2, Human LIGHT stably expressed on EL4 cells (EL4-LIGHT) (human, UniProt O43557 1-240)
T2 construct: whole, on cells; also called membrane LIGHT
Assay: flow cytometry, against F19 and F23

T2 sequence (O43557 whole entry): as the sequence (O43557 whole entry T191A) above, with A191T counted along it

| Binder | binding ratio, mAb to LIGHT trimer |
| --- | --- |
| B1 | 1 mAb per LIGHT trimer |
| B2 | 1 mAb per LIGHT trimer |
| B3 | 1 mAb per LIGHT trimer |
| B4 | 1 mAb per LIGHT trimer |

Target: T1, Human LIGHT-32L, on II23 cells
Assay: flow cytometry on II23-LIGHT 32L cells, 4 ug mAb in 100 uL, goat anti-human Fc gamma-PE; signal as % of the commercial anti-LIGHT-PE
Description: The cells were suspended at 1×10⁷ cells/ml and 100 uL aliquots were placed into wells of a 96-well plate, the cells spun down and washed in FACS buffer at 1800 rpm for 2 min. The cells were blocked with 1:100 dilution of anti-CD16/CD32 (eBioscience, San Diego, USA) in FACS buffer for 20 min at room temperature and then washed 1× in FACS buffer at 1800 rpm for 2 min. The cells were then resuspended in 100 uL FACS buffer+4 ug anti-membrane LIGHT mAbs or anti-LIGHT-PE (eBioscience, lot: E01621-1632) for 30 min in the dark at room temperature, followed by washing 1× in FACS buffer at 1800 rpm for 2 min and then resuspended in 100 uL FACS buffer plus 1:100 goat anti-human Fcγ-PE secondary antibody or no secondary antibody at 4° C. in the dark for 30 min. The cells were again washed 1× in FACS buffer at 1800 rpm for 2 min and fixed in 200 uL 2% paraformaldehyde overnight at 4° C. and read on a flow cytometer.

| Binder | binding result |
| --- | --- |
| B1 | binds |
| B2 | binds |
| B3 | binds |
| B4 | binds |

Target: T3, LIGHT without residues 81-84, stably expressed on EL4 cells (EL4-NC-LIGHT)
Assay: cell-based or functional assay

| Binder | IC50, inhibition of IL-8 secretion, HT-29 + EL4-NC-LIGHT cells |
| --- | --- |
| B5 | 0.55 nM |
| B6 | 0.44 nM |

Target: T3, LIGHT without residues 81-84, stably …
Assay: cell-based or functional assay
Remark: another data set of the same source

| Binder | IC50, inhibition of IL-8 secretion, HT-29 + EL4-NC-LIGHT cells |
| --- | --- |
| B2 | 1.8 nM |
| B3 | 2 nM |
| B4 | 1.9 nM |

Target: T2, Human LIGHT stably expressed on EL4 …
Assay: flow cytometry, EL4-LIGHT cells

| Binder | EC50 |
| --- | --- |
| B7 | 0.32 nM |
| B8 | 0.23 nM |
| B9 | 0.37 nM |

Target: T2, Human LIGHT stably expressed on EL4 …
Assay: flow cytometry, EL4-LIGHT cells
Remark: another data set of the same source
Description: The EC50 of the 7 mAbs were calculated from binding to EL4-LIGHT cells (FIG. 1). […] Non-linear regression analysis was performed to determine the functional binding affinity measurement or EC50 for each mAb. A range of functional affinities was observed.

| Binder | EC50 |
| --- | --- |
| B1 | 10.4 nM |
| B2 | 2.73 nM |
| B3 | 0.133 nM |
| B4 | 0.118 nM |
